B1: LINE1-mini (parent)
chain: GGCAGAGCUCAACACAGCGUGGCAAAGUGGCUGUGGCUAGACUGCC

Variants of: B1
Assay: self-cleavage, relative activity (ratio to wild type); higher = more cleavage; in vitro, sequencing; the parent is a self-cleaving ribozyme
For GGCAGAGCUCAACACACCGUGGCAAAGUGGCUGUGGCUAGAAUGCC [G17C C42A], the self-cleavage was 0.05.
For GGCAGAGCUCAACACACCGUGGCAAAGUGGCUGUGGCUAGAUUGCC [G17C C42U], the self-cleavage was 0.1.
With GGCAGAGCUCAACACAACGUGGCAAAGUGGCUGUGUCUAGACUGCC [G17A G36U] the self-cleavage was 0.05.
Variant GGCAGAGCUCAACACAACGUGGCAAAGUGGCUGUGACUAGACUGCC [G17A G36A] has a self-cleavage of 0.1.
Variant GGCAGAGCUCAACACAACGUGGCAAAGUGGCUGUGCCUAGACUGCC [G17A G36C] has a self-cleavage of 0.05.
Variant GGCAGAGCUCAACACACCGUGGCAAAGUGGAUGUGGCUAGACUGCC [G17C C31A] has a self-cleavage of 0.65.
Work on GGCAGAGCUCAACACACCGUGGCAAAGUGGUUGUGGCUAGACUGCC [G17C C31U] yielded a self-cleavage of 0.16.
GGCAGAGCUCAACACACCGUGGCAAAGUGGGUGUGGCUAGACUGCC [G17C C31G] gave a self-cleavage of 0.14.
Variant GGCAGAGCUCAACACACCGUGGCAACGUGGCUGUGGCUAGACUGCC [G17C A26C] has a self-cleavage of 1.18.
In the case of GGCAGAGCUCAACACACCGUGGCAAGGUGGCUGUGGCUAGACUGCC [G17C A26G], the self-cleavage is reported as 0.07.
In the case of GGCAGAGCUCAACACACCGUGGCAAUGUGGCUGUGGCUAGACUGCC [G17C A26U], the self-cleavage is reported as 1.41.
Work on GGCAGAGCUCAACACAACGUGGCAAAGUGGCUGUGGCUAGACUGAC [G17A C45A] yielded a self-cleavage of 0.13.
Variant GGCAGAGCUCAACACAACGUGGCAAAGUGGCUGUGGCUAGACUGGC [G17A C45G] has a self-cleavage of 0.04.
Variant GGCAGAGCUCAACACAACGUGGCAAAGUGGCUGUGGCUAGACUGUC [G17A C45U] has a self-cleavage of 0.25.
With GGCAGAGCUCAACACAACGUGGCAAAGUGGCUGUUGCUAGACUGCC [G17A G35U] the self-cleavage was 0.05.
GGCAGAGCUCAACACAACGUGGCAAAGUGGCUGUAGCUAGACUGCC [G17A G35A] gave a self-cleavage of 0.04.
GGCAGAGCUCAACACAACGUGGCAAAGUGGCUGUCGCUAGACUGCC [G17A G35C] gave a self-cleavage of 0.05.
Variant GGCAGAGCUCAACACAACGUGGCAAAGUGGCUGUGGCUAGACUCCC [G17A G44C] has a self-cleavage of 0.05.
Work on GGCAGAGCUCAACACAACGUGGCAAAGUGGCUGUGGCUAGACUACC [G17A G44A] yielded a self-cleavage of 0.04.
Work on GGCAGAGCUCAACACAACGUGGCAAAGUGGCUGUGGCUAGACUUCC [G17A G44U] yielded a self-cleavage of 0.03.
With GGCAGAGCUCAACACACCGUGGCAAAGUGGCUGUGGCUAGACUGCC [G17C] the self-cleavage was 0.79.
Variant GGCAGAGCUCAACACACCGUGGCAAAGUGGCUGUGGCUAGCCUGCC [G17C A41C] has a self-cleavage of 0.04.
In the case of GGCAGAGCUCAACACACCGUGGCAAAGUGGCUGUGGCUAGGCUGCC [G17C A41G], the self-cleavage is reported as 0.27.
Variant GGCAGAGCUCAACACACCGUGGCAAAGUGGCUGUGGCUAGUCUGCC [G17C A41U] has a self-cleavage of 0.49.
Variant GGCAGAGCUCAACACAACGUGGCAAAGUGGCAGUGGCUAGACUGCC [G17A U32A] has a self-cleavage of 0.06.
GGCAGAGCUCAACACAACGUGGCAAAGUGGCCGUGGCUAGACUGCC [G17A U32C] showed a self-cleavage of 0.09.
In the case of GGCAGAGCUCAACACAACGUGGCAAAGUGGCGGUGGCUAGACUGCC [G17A U32G], the self-cleavage is reported as 0.06.
Work on GGCAGAGCUCAACACAACGUGGCAAAUUGGCUGUGGCUAGACUGCC [G17A G27U] yielded a self-cleavage of 0.31.
With GGCAGAGCUCAACACAACGUGGCAAACUGGCUGUGGCUAGACUGCC [G17A G27C] the self-cleavage was 0.19.
For GGCAGAGCUCAACACAACGUGGCAAAAUGGCUGUGGCUAGACUGCC [G17A G27A], the self-cleavage was 0.42.
In the case of GGCAGAGCUCAACACACCGUGGCAAAGUGGCUGUGGCUAGACUGAC [G17C C45A], the self-cleavage is reported as 0.16.
With GGCAGAGCUCAACACACCGUGGCAAAGUGGCUGUGGCUAGACUGUC [G17C C45U] the self-cleavage was 0.84.
For GGCAGAGCUCAACACACCGUGGCAAAGUGGCUGUGGCUAGACUGGC [G17C C45G], the self-cleavage was 0.56.
GGCAGAGCUCAACACACCGUGGCCAAGUGGCUGUGGCUAGACUGCC [G17C A24C] showed a self-cleavage of 0.19.
GGCAGAGCUCAACACACCGUGGCUAAGUGGCUGUGGCUAGACUGCC [G17C A24U] gave a self-cleavage of 0.6.
Variant GGCAGAGCUCAACACACCGUGGCGAAGUGGCUGUGGCUAGACUGCC [G17C A24G] has a self-cleavage of 0.71.
Work on GGCAGAGCUCAACACAACGUGGCAAAGUAGCUGUGGCUAGACUGCC [G17A G29A] yielded a self-cleavage of 0.37.
Variant GGCAGAGCUCAACACAACGUGGCAAAGUCGCUGUGGCUAGACUGCC [G17A G29C] has a self-cleavage of 0.68.
GGCAGAGCUCAACACAACGUGGCAAAGUUGCUGUGGCUAGACUGCC [G17A G29U] showed a self-cleavage of 0.07.
In the case of GGCAGAGCUCAACACAACGUGGCAAAGUGGCUGUGGUUAGACUGCC [G17A C37U], the self-cleavage is reported as 0.05.
With GGCAGAGCUCAACACAACGUGGCAAAGUGGCUGUGGGUAGACUGCC [G17A C37G] the self-cleavage was 0.05.
Variant GGCAGAGCUCAACACAACGUGGCAAAGUGGCUGUGGCUACACUGCC [G17A G40C] has a self-cleavage of 0.09.
Work on GGCAGAGCUCAACACAACGUGGCAAAGUGGCUGUGGCUAAACUGCC [G17A G40A] yielded a self-cleavage of 0.06.
For GGCAGAGCUCAACACAACGUGGCAAAGUGGCUGUGGCUAUACUGCC [G17A G40U], the self-cleavage was 0.07.
For GGCAGAGCUCAACACACCGUGGGAAAGUGGCUGUGGCUAGACUGCC [G17C C23G], the self-cleavage was 1.22.
For GGCAGAGCUCAACACACCGUGGUAAAGUGGCUGUGGCUAGACUGCC [G17C C23U], the self-cleavage was 1.61.
With GGCAGAGCUCAACACACCGUGGAAAAGUGGCUGUGGCUAGACUGCC [G17C C23A] the self-cleavage was 1.07.
GGCAGAGCUCAACACAACGUGGCAAAGUGGCUGUGGCUAGACUGCU [G17A C46U] showed a self-cleavage of 0.15.
Work on GGCAGAGCUCAACACAACGUGGCAAAGUGGCUGUGGCUAGACUGCA [G17A C46A] yielded a self-cleavage of 0.14.
GGCAGAGCUCAACACAACGUGGCAAAGUGGCUGUGGCUAGACUGCG [G17A C46G] gave a self-cleavage of 0.12.
For GGCAGAGCUCAACACACCGUGGCAAAGUGGCUGUGGUUAGACUGCC [G17C C37U], the self-cleavage was 0.08.
In the case of GGCAGAGCUCAACACACCGUGGCAAAGUGGCUGUGGGUAGACUGCC [G17C C37G], the self-cleavage is reported as 0.04.
With GGCAGAGCUCAACACACCGUGGCAAAGUGGCUGUGGAUAGACUGCC [G17C C37A] the self-cleavage was 0.07.
GGCAGAGCUCAACACAACGUGGCAAAGUGGCUGCGGCUAGACUGCC [G17A U34C] showed a self-cleavage of 0.06.
Work on GGCAGAGCUCAACACAACGUGGCAAAGUGGCUGAGGCUAGACUGCC [G17A U34A] yielded a self-cleavage of 0.04.
Variant GGCAGAGCUCAACACAACGUGGCAAAGUGGCUGGGGCUAGACUGCC [G17A U34G] has a self-cleavage of 0.02.

— the RNAGym collection of RNA variant scans (doi:10.7554/elife.90254)
